Laboratory results reported in patent publication US20220305003A1, “METHODS OF TREATING CANCER WITH AN INHIBITOR OF ZNF827” (CHILDREN'S MEDICAL RESEARCH INSTITUTE, priority 2019, published 2022).

Columns and labels:
ZNF827 ZnF1-3 deleted = target: T1, ZNF827 ZnF1-3 deleted (Homo sapiens, UniProt Q17R98 SEQ:4-997); experiment: EMSA; binding abrogated; details: tags: HaloTag (pHTN), expressed in HEK 293T, tag removed by HaloTEV cleavage; label: 32P (gamma)
T1 chain: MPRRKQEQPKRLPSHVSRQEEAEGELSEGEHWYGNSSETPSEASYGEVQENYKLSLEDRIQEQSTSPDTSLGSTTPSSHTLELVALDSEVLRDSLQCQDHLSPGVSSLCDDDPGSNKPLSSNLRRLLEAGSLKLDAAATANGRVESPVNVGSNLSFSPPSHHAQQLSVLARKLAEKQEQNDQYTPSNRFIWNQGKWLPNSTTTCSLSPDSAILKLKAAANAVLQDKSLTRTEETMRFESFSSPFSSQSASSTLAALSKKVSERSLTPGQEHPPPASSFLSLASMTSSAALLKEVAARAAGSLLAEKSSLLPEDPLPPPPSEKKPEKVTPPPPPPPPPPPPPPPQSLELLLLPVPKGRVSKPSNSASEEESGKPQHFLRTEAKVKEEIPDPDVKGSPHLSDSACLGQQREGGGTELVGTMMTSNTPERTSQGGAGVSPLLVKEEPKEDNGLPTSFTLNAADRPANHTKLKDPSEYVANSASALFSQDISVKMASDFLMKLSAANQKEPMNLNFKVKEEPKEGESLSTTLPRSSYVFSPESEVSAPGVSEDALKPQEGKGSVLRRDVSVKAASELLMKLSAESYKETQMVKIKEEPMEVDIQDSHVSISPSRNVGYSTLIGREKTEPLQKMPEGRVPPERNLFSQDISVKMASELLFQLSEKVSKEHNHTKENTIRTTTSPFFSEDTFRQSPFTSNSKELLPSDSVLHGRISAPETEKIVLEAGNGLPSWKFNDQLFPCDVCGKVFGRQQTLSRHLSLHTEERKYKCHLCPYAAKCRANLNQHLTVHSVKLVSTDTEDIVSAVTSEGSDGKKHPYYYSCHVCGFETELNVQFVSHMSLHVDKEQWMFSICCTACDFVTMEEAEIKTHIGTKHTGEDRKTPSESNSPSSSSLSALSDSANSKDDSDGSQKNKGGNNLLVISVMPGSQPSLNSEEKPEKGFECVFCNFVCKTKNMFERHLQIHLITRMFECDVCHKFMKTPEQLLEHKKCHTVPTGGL
Method: (§1) Purified proteins were quantified using a BCA assay using the Pierce™ BCA Protein Assay Kit according to the manufacturer's instructions. Equal amounts of purified proteins were incubated in binding buffer (20 mM HEPES-KOH, pH7.9, 100 mM KCl, 0.8 mM ZnCl₂, 0.2 mM EDTA, 5% glycerol, 0.5 mM DTT and 0.5 mM PMSF) with 6.25 μg/mL poly (dI:dC) and 50 ng/μL BSA on ice for 20 minutes. ˜0.12 nM (˜2.5 fmol) γ-³²P labelled DNA oligonucleotide (see Table 3) probes were added to samples and incubated on ice for another 30 minutes. Binding reactions were loaded onto an 8% native acrylamide/bisacrylamide (19:1, Biorad) gel pre-run at 100V in 0.5× TB buffer (89 mM Tris, 89 mM boric acid) for 20 minutes. Gels were electrophoresed at 150 V for 150 minutes at 4° C., dried at 65° C. for 45 minutes, and then exposed to a Phosphor screen overnight. Gel images were obtained by scanning the screens with a Typhoon FLA9500 Imager (GE Life Sciences).

ZNF827 full length = target: T2, ZNF827 full length (Homo sapiens, UniProt Q17R98 SEQ:1-1081); experiment: EMSA; 0.8 mM ZnCl2, 100 mM KCl, poly(dI:dC), on ice; details: tags: HaloTag (pHTN), expressed in HEK 293T, tag removed by HaloTEV cleavage; label: 32P (gamma)
T2 sequence: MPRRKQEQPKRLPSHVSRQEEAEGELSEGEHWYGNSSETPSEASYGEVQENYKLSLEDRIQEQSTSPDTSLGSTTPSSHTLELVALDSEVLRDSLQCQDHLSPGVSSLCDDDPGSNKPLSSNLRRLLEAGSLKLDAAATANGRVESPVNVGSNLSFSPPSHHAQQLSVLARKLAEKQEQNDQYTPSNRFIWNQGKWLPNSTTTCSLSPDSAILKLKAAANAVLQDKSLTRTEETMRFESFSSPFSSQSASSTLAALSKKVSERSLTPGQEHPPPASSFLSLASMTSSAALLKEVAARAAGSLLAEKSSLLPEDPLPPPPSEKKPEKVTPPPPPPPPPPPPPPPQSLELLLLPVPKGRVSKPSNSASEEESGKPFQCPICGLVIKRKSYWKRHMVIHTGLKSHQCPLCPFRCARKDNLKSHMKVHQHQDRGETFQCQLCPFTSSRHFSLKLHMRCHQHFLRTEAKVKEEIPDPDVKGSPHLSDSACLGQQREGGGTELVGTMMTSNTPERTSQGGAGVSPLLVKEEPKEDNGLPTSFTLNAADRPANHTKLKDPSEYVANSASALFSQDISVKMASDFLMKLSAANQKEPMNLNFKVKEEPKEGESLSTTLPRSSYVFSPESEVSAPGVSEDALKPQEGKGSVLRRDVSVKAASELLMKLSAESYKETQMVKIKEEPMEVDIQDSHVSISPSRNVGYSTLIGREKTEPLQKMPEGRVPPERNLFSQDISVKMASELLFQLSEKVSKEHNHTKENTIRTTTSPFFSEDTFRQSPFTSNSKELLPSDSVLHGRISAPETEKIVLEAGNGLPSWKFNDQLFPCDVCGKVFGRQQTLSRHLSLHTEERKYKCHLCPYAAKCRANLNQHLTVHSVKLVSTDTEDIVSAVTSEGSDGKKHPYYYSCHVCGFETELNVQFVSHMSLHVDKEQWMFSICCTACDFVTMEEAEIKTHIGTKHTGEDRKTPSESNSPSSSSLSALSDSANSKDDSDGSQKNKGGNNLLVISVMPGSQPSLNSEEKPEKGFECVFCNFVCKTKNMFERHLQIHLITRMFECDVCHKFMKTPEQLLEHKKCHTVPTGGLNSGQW
Method: as §1

ZNF827 ZnF4-9 deleted = target: T3, ZNF827 ZnF4-9 deleted (Homo sapiens); experiment: as above; details: tags: HaloTag (pHTN), expressed in HEK 293T, tag removed by HaloTEV cleavage; label: 32P (gamma)
T3 chain: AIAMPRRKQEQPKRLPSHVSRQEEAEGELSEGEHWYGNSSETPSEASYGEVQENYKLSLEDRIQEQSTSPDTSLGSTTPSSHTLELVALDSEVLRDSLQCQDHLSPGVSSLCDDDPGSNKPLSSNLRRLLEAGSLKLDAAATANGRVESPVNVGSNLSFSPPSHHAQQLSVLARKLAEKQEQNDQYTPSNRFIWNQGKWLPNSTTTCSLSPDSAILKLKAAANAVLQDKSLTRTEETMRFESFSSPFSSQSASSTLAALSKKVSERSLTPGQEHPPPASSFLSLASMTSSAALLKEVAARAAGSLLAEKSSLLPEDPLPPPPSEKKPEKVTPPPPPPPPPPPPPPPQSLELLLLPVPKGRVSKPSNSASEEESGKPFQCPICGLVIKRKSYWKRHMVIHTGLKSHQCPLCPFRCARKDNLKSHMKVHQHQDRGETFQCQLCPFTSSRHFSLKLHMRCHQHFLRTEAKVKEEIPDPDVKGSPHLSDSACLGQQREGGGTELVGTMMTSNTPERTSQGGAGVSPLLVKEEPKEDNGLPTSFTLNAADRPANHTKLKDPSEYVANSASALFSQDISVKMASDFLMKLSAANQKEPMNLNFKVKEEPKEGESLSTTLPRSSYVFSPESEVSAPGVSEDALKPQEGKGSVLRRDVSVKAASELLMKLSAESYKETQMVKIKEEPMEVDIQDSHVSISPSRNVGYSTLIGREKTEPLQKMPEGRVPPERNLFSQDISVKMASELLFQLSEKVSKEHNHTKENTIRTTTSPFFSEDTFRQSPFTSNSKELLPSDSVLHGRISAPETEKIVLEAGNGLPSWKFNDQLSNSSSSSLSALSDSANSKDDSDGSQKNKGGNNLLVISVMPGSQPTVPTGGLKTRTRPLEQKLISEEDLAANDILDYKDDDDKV
Method: as §1

[1] = target: T4, topoisomerase 2-binding protein 1 (TOPBP1) (human, UniProt Q92547 1-1522); experiment: co-IP with Myc antibody, Western blot
T4 construct: TOPBP1 in lysates of human cells, co-immunoprecipitated with Myc antibody
Method: Resuspended cells were lysed by incubation with rotation for 1 hour at 4° C. For Benzonase treatment to remove DNA, samples were incubated in the lysis buffer described above supplemented with 25 U Benzonase nuclease (Novagen, Merck Millipore) for 2 hours at 4° C. Lysates were subjected to centrifugation at 13,000 rpm for 40 minutes at 4° C. to remove cell debris. The supernatant was then transferred to a fresh cold low bind 1.5 mL tube for subsequent immunoprecipitation. For immunoprecipitation, protein lysates were incubated with antibody for the protein of interest (10 μg per mL lysate) or IgG control (Refer to Tables 4 and 5 for the list of antibodies used in this study), preincubated with Dynabeads Protein G, as per manufacturer's instructions (Life Technologies), with rotation overnight at 4° C. The following day, beads were washed three times in cold lysis buffer and separated on a magnetic rack. Proteins were then eluted from the beads by resuspension in 50 mM Glycine pH 2.8 and sodium dodecyl sulphate (SDS) sample buffer (0.2 M Tris-Cl, pH 6.8, 28% glycerol, 13.5% β-mercaptoethanol, 6% SDS, 6 mM EGTA, and 0.07% bromophenol blue) for 10 minutes at 70° C. and subjected to Western blot analysis, as described below, to detect various protein interactions. […]

T4 sequence (Q92547 whole entry): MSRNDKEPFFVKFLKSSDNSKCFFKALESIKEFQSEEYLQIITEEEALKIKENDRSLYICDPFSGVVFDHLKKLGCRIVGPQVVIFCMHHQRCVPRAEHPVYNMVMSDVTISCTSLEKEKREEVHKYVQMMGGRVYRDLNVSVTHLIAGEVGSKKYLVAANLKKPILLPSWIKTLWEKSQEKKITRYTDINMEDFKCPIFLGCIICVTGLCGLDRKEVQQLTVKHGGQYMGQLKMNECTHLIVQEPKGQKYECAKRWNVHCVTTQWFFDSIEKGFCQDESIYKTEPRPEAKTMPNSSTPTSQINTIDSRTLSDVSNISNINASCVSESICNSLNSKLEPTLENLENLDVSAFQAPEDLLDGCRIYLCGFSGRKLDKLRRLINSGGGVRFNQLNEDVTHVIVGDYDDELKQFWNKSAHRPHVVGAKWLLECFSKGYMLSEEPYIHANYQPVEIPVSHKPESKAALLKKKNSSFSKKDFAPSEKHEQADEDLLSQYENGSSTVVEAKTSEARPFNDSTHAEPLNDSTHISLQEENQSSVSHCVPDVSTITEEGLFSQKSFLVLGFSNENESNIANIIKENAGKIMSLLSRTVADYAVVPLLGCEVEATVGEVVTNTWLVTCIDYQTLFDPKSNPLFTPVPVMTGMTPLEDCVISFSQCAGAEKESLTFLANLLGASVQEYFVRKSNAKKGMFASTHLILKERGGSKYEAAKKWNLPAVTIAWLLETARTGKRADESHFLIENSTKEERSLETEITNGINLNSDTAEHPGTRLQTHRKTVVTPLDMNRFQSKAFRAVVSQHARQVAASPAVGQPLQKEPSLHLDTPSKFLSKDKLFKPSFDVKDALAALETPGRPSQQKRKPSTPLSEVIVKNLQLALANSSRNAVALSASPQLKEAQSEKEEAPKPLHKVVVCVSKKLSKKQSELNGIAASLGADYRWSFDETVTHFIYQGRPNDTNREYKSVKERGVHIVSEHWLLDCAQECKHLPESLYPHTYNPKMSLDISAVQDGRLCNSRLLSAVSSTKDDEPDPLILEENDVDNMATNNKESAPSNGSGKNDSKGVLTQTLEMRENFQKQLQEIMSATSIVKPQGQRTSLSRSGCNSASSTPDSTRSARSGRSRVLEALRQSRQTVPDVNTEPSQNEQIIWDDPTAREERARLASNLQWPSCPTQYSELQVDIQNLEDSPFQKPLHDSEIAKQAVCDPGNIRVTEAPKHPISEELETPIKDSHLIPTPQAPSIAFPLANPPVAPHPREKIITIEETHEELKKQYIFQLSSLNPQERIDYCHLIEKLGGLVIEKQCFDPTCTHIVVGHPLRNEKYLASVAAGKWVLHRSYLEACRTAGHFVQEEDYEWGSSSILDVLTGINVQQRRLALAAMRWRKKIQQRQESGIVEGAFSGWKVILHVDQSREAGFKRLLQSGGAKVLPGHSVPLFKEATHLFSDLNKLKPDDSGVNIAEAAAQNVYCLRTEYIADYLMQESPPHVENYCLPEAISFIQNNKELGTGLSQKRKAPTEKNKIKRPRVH

B1: ss pentaprobe 3 (ssDNA)
DNA: CGCTCTATTCTACTGTCCTGTGCATTCAATCGTTGAGTTCGATCTAGTCTCGTCTAACCCTCCCCTGCTCCGCTGGTCTGGCCTCGCCTATCCTACCCAT
Q: Does B1 bind (ZNF827 ZnF1-3 deleted)?
A: Result: no binding

Q: Does B1 bind (ZNF827 full length)?
A: Result: binds

Q: Does B1 bind (ZNF827 ZnF4-9 deleted)?
A: Result: binds

B2: ss pentaprobe 9 (ssDNA)
DNA: ATGGGTAGGATAGGCGAGGCCAGACCAGCGGAGCAGGGGAGGGTTAGACGAGACTAGATCGAACTCAACGATTGAATGCACAGGACAGTAGAATAGAGCG
Q: Which results are given for B2?
A: binding result (ZNF827 ZnF1-3 deleted): no binding; binding result (ZNF827 full length): binds; binding result (ZNF827 ZnF4-9 deleted): binds

B3: ZNF827 full length (human zinc finger protein ZNF827) (other)
chain: MPRRKQEQPKRLPSHVSRQEEAEGELSEGEHWYGNSSETPSEASYGEVQENYKLSLEDRIQEQSTSPDTSLGSTTPSSHTLELVALDSEVLRDSLQCQDHLSPGVSSLCDDDPGSNKPLSSNLRRLLEAGSLKLDAAATANGRVESPVNVGSNLSFSPPSHHAQQLSVLARKLAEKQEQNDQYTPSNRFIWNQGKWLPNSTTTCSLSPDSAILKLKAAANAVLQDKSLTRTEETMRFESFSSPFSSQSASSTLAALSKKVSERSLTPGQEHPPPASSFLSLASMTSSAALLKEVAARAAGSLLAEKSSLLPEDPLPPPPSEKKPEKVTPPPPPPPPPPPPPPPQSLELLLLPVPKGRVSKPSNSASEEESGKPFQCPICGLVIKRKSYWKRHMVIHTGLKSHQCPLCPFRCARKDNLKSHMKVHQHQDRGETFQCQLCPFTSSRHFSLKLHMRCHQHFLRTEAKVKEEIPDPDVKGSPHLSDSACLGQQREGGGTELVGTMMTSNTPERTSQGGAGVSPLLVKEEPKEDNGLPTSFTLNAADRPANHTKLKDPSEYVANSASALFSQDISVKMASDFLMKLSAANQKEPMNLNFKVKEEPKEGESLSTTLPRSSYVFSPESEVSAPGVSEDALKPQEGKGSVLRRDVSVKAASELLMKLSAESYKETQMVKIKEEPMEVDIQDSHVSISPSRNVGYSTLIGREKTEPLQKMPEGRVPPERNLFSQDISVKMASELLFQLSEKVSKEHNHTKENTIRTTTSPFFSEDTFRQSPFTSNSKELLPSDSVLHGRISAPETEKIVLEAGNGLPSWKFNDQLFPCDVCGKVFGRQQTLSRHLSLHTEERKYKCHLCPYAAKCRANLNQHLTVHSVKLVSTDTEDIVSAVTSEGSDGKKHPYYYSCHVCGFETELNVQFVSHMSLHVDKEQWMFSICCTACDFVTMEEAEIKTHIGTKHTGEDRKTPSESNSPSSSSLSALSDSANSKDDSDGSQKNKGGNNLLVISVMPGSQPSLNSEEKPEKGFECVFCNFVCKTKNMFERHLQIHLITRMFECDVCHKFMKTPEQLLEHKKCHTVPTGGLNSGQW
notes: Co-IPs used lysates of human cells (U-2 OS, HT1080) from overexpression experiments; also called Myc-DDK-tagged ZNF827 full length; pCMV6 Myc-DDK-tagged ZNF827 (RC221405); not shown: Myc-DDK tag of the pCMV6 vector
Q: Does B3 bind [1]?
A: Result: binds
